Test results taken from patent publication US20060057665A1, “Galectin-14 therapeutic molecule and uses thereof” (The University of Melbourne, priority 2001, published 2006).

Assays:
[1] = target: T1, laminin from Engelbreth-Holm-Swarm murine sarcoma (Mus musculus, UniProt P02468+P02469+P19137); experiment: Solid-phase laminin binding assay; details: serial dilutions; detected with anti-GST HRP antibody, absorbance 450 nm
T1 construct: laminin from Engelbreth-Holm-Swarm murine sarcoma (Sigma); purchased Sigma; host or cells: Engelbreth-Holm-Swarm murine sarcoma (tissue-derived)
Protocol: FIG. 17 is an image of the saturation binding of GST-galectin-14 fusion protein to immobilised laminin. Laminin binding of GST-galectin-14 fusion protein was assayed using a solid-phase binding assay in a 96-well microtitre plate. Serial dilutions of GST-galectin-14 (▪) and GST (▴) were added to microtitre wells containing laminin. 0.3 M Lactose was added to GST-galectin-14 to inhibit binding (◯). The level of bound protein was monitored by the binding of rabbit anti-GST HRP antibody developed with TMB substrate and detected by a change in absorbance at 450 nm.
Laminin binding activity was measured according to the method of Mazurek et al. with some modification. Briefly, the wells of a 96-well microtitre plate were coated with laminin from Engelbreth-Holm-Swarm murine sarcoma (Sigma) at 1 μg/100 μl of carbonate coating buffer (15 mM Na2CO3, 35 mM NaHCO3, pH 9.6) per well overnight at 4° C. Non-specific binding sites were blocked with 200 μl of 0.5% Tween 20 in PBS for 1 h. Plates were washed 3 times in 0.05% Tween 20 PBS and incubated with 50 μl serial dilutions of GST-galectin-14 or GST alone, diluted in 0.5% Tween 20 PBS, for 1.5 h at 37° C. Control wells contained 0.3 M lactose. […] The reaction was terminated with 100 μl 2 M sulphuric acid and the colour change monitored using a dual wavelength mode plate reader (Bio-tek instruments) at 450 nm, ref 690 nm.

[2] = tested on: rabbit erythrocytes; experiment: Hemagglutination assay on trypsin-treated, glutaraldehyde fixed rabbit erythrocytes; assay type: cell-based; details: for stability of agglutination activity upon storage: even in the presence of reducing agents
Protocol: Trypsin-treated, glutaraldehyde fixed rabbit erythrocytes were prepared and tested in an agglutination assay according to the method of Nowak et al. (Nowak et al. (1976) supra). Agglutination assays were performed in 96-well V-shaped microtiter plates with serial 2-fold dilutions of samples in 25 μl of DES (0.15 M NaCl, 2 mM EDTA, 2 mM dithiothreitol), 50 μl of 0.5% (w/v) BSA in 0.15 M NaCl and 25 μl of a 4% suspension of rabbit erythrocytes. The plates were shaken vigorously for 30 s, and agglutination was read after the plates had stood at room temperature for 1 h. Agglutinated erythrocytes formed a “mat” on the bottom of the well. For assessment of the inhibitory effects of saccharides, lactose, galactose, and N-acetyl-glucosamine were serially diluted in 25 μl of 0.15 M NaCl prior to the addition of recombinant protein in DES, 25 μl of 1% (w/v) BSA in 0.15 M NaCl, and 4% erythrocytes in PBS. The minimum concentration of GST-galectin-14 that gave mat formation (0.28 μM) was used in the saccharide inhibition assay. For assessment of the effects of antibody on GST-galectin-14 hemagglutination, ascites and supernatants from monoclonal antibodies and polyclonal rabbit sera all raised to recombinant galectin-14 were serially diluted in 25 μl of 0.15 M NaCl prior to the addition of recombinant protein in DES, 25 μl of 1% (w/v) BSA in 0.15 M NaCl, and 4% erythrocytes in PBS. A different batch of GST-galectin-14, which produced mat formation at a minimum concentration of 0.059 μM, was used at 0.059 μM and 0.042 μM to measure both inhibition and potentiation of agglutination by antibodies.

[3] = SDS-PAGE and Western blot analysis of recombinant galectin-14 after storage; assay type: physicochemical; details: storage at high concentrations; reducing conditions
Protocol: FIG. 10 is an image of SDS-PAGE and Western blot analysis of recombinant galectin-14 and endogenous proteins. […] The arrow points to the position of monomeric galectin-14. All samples were run under reducing conditions. […] Membranes were incubated with mAb supernatant for 2 h at room temperature, followed by incubation with secondary antibody, horseradish peroxidase-conjugated rabbit anti-mouse Ig (Dako, Carpinteria, Calif.), for at least 1 h at room temperature. Signals were detected using 1.5 mM 3,3′-diaminobenzidine tetrahydrochloride (DAB; Sigma), or ECL (Amersham Pharmacia Biotech).

Row | Molecule | binding to immobilised laminin [1] | maximum concentration which did not induce agglutination ([2]; batch used in the antibody potentiation assay) [µM] | minimum concentration that gave mat formation (agglutination) ([2]; batch used in the saccharide inhibition assay) [µM] | minimum concentration that produced mat formation (agglutination) ([2]; different batch, used in the antibody assays) [µM] | stability of agglutination activity upon storage [2] | self-aggregation after storage [3] | minimum concentration exhibiting agglutination activity on rabbit erythrocytes ([2]; fresh cleaved and purified recombinant protein) [µM]
1 | GST-galectin-14: Recombinant galectin-14 expressed in E. coli BL-21 as a GST fusion protein (pGEX-6P-2) (protein, left off: a dimerising Fc or GST) MQSESGHEGDEELAFRDTQPPYINLPIPFTGRIEGGLQDGHKVTVMGRVLSTDENRFQVDFQMGISDTNNVAFHFNPRFEGSGYVVCNTMQLGNWGPEEKKMQMPFQKGSLFEICFKVDSSSFKVTVNGSIFLDYAHRLPFEQVNAISIGGCVHVSYISFQI | bound to laminin in a dose dependent manner | 0.042 | 0.28 | 0.059 | did not deteriorate upon storage | – | –
2 | galectin-14: Ovine proto-type galectin, amino acid sequence <400>2; recombinant form cleaved from GST fusion, with 5 additional N-terminal amino acids (protein) MQSESGHEGDEELAFRDTQPPYINLPIPFTGRIEGGLQDGHKVTVMGRVLSTDENRFQVDFQMGISDTNNVAFHFNPRFEGSGYVVCNTMQLGNWGPEEKKMQMPFQKGSLFEICFKVDSSSFKVTVNGSIFLDYAHRLPFEQVNAISIGGCVHVSYISFQI | – | – | – | – | rapidly lost upon storage | often self-aggregates into oligomers | 0.16
